Reference: the DeepSol protein solubility set

test: soluble on expression in E. coli; label from the status in PepcDB or PDB records

Sequence	soluble on expression in E. coli
MTQYQALIIGFGKAGKTLAATLAKTGWRVAIIEQSASMFGGTCINIGCIPTKTLVHDAEREGDFSVAMQRKAAVVNFLRDKNFHNLADLDNVDVIEGRAEFIDNHTLRVFQADGERVLRGEKIFINTGAESVIPAITGLTTTAGVFDSTGLLSLSQRPARLGILGGGYIGLEFASMFANFGTKVTIFEAAPQFLPREDRDIAQAITRILQEKGVELILNANVQAVSSKEGAVQVETPEGAHLVDALLVASGRKPATAGLQLQNAGVAVNERGGIIVDDYLRTTADNIWAMGDVTGGLQFTYISLDDFRIVRDGLLGDGKRSTRDRQNVPYSVFMTPPLSRVGLTEEQARASGATVQVVTLPVAAIPRARVMNDTRGVLKAVVDVNTQRIVGVSLLCVDSHEMINIVKTVMDADLPYTVLRDQIFTHPTMSESLNDLFSLIK	not soluble
MEIYLVFVDAASNSNKFWTAKVEQNQLTVQWDRVGYKAQTKVHQFTSQAQAANKYNNLVFEKKAKGYQESQPQIESCGVVDIRRAMQLLNGLRSYVTNRNFNADYINLLNQYLKIIPTPLGMQLEPYRIFTSVADVDHQRELLSSLIPATPVAVTQAKQMPESQEKIVSLRGIHKNLWRHFLEHHHHHH	not soluble
MGSDKIHHHHHHMKLAFICTEKLPAPAVRGGAIQMMIDGVTPYFSSRYDLTIFSIEDPSLPKRETKDGVHYIHLPKEHYREAVAEELRASSFDLIHVFNRPLNVSLYKKASPNSKIVLSLHNEMFSEKKMTFAQGKEVLDNVSMITTVSEFIKQTVIERFPEAEDITKVVYSGVDLNSYPPVWTMKGSAVRKTYRKKYGIEDKKVILFAGRLSPTKGPHLLIHSMRRILQQHPDAVLVIAGGKWFSDDSENQYVTYLRTLALPYRDHIIFTKFIPADDIPNLFLMADVFVCSSQWNEPLARVNYEAMAAGTPLITTNRGGNGEVVKHEVTGLVIDSYNKPSSFAKAIDRAFTDQELMNKMTKNARKHVEALFTFTHAAKRLNTVYQSVLTPKNKQFPPPFLTQNFDLSSINQLFVKAKT	not soluble
SSIEFLAVEKQKIIAKETLELYAKIAGRIGMYPVKTQLADLSFKVLDPKNFNNTLSKINQQKVFYDNEWGNFKKQLEEMLEQNQIEYRLE	not soluble
MGSDKIHHHHHHMGIEAAVGAWNNTPRGDFAYKGTNLDIKDELKYDDETRLMGRVKIETPLFFPNLYLMATPMEFDGQGSKSGTFQFGDVTFDGTVPFTSELKLDHYDLGLYWGIPLLKTATAGVVNVDLGIDARLIDLKAEVVQGGVTESKSLVVGVPMIYAGVQVRPLSWFAAEGEARGMAYGDNRYYDLIARGKLILFDHLFAAAGYRYEKIEIDESDIKADVDFGGPFAEVGFQF	not soluble
VLGAIENVEIADIKQAFTARIDTGATTSSLNAVDLQEFERNGSQWVRFHLVNQDVKADDGKLEWITAPVIRNVKIRQATADDAERRPVVELWIKLGAIHEKVQFTLADRSHMTHSVLLGREFIQDIAVVDVSKEFVQSKK	soluble
MGSDKIHHHHHHMLSTAKERQLKIVNRLKVEQFMRIIDLVELVNYSEATVKRDLVELEKEGLVRRTRGGAMIIDNKKIDLPYLMKMNERSNETSKIRIADIAKSLIRDDMVIFLDSSSTSLHLIDVLSKFDGLQIITNGVMTASMLSEFTNARVSILGGSILTKRYTVNGAKAYNDALTYNADIAFVSCRGIDYDKGATETHEGEALIKQAFRRQSSSLVLLVTEEKVGHKFMHQSLACHDIDYLITDFKLDSDVEEQFKTHQITCLY	not soluble
MSLNNDDSPALTLDEYKQAQAIVILGGGSYQTKELYAETASGAPQLERLRYAAFLQKETGLPILTTGYSLIGISEGDLMAKELNQFFNVPTQWIENKARNTEENASFTKNILIKDHIQKIILVTNQWHMKRAKYLFEKQGFDVLPAAAASYGSKGNLSAKSFIPDLGALNSNMVLLKEWIGYWKAHYVEEGHHHHHH	not soluble
MANRCRLKPYNRRQNNACSNRTHTLPANGLRNLRLLDLRTKVTELKHIGGQSTAAIADLAGEMRRLAKKSKMLLKGLWPFLSSTISAFKINQSLFKHYYKTVQLLNCKHRKKNY	not soluble
MGSDKIHHHHHHMIKAMYSGVSGMKANQTKLDVIGNNVANAGTTSFKKSSARITDSFYQTVLYASAPTAALGGTNLGQVGVGSKISSINKDMVQGNVQPTNRPSDLMIDGDGYLPVVRQGTVMYTRDGSFNLDTGFKAADGALKNIKGGRLVNGDGYMLQGMIYDGEYKADTGEFVKKGDAKGKEPIVIPLQSISPKDGTVQNVLEYNISKDGTVEFLLSDGQRTQFVYDIPDGAKVGDTPAGIDKLKGTIQKVQIYAFQNPAGLDAAGGNLFKPSANSGDPQIAGATGTIIQGAIEASNVDIAEEFTEMIIASRSFQANSKIISTSDEILQEIINLKR	not soluble
MASTNCVSIQKRDILRGSGSTTWFDVLLEKGSCVTIVADDRPTVDIWLDRITHESPIAGREYCMRVDISGLKIATRCPTLGEAYLSEEHTEDYVCKRGFSDRGWGNGCGLFGKGSIVGCVKTTCKSSGIAKSYSYDIPKVKYVISTEVHKGELISGNVSASVVSATFSSEAEKHSMELEDYGRLEFTCRVVSGSNLGSVRILEIDNHYFNVHEDWLLDLPLPWRIPDGHWHDLGELIAFKEPHAVKMVAQAYGDQRASLLKSLVKAEEIAKSGNSYYLPGGHVDCRVSLVNLKLKGTTYPYCGDSFVWKRRPTATHHGTVAMEVTYQGTDVPCKVSVIVEKDGQNGGNAGSLITSNPIITAQGSSVFLELEVPLGFSTIKVGAAKQQWRQDGSSIGKALETHHHHHH	not soluble
MSLDGKPTIIIKYGKIDEEAMKSQRYNFDDLMVQLRENSIDRVADVSFAILEPSGKLTIVKKENSGEHRQLEMPLIIDGFIQTENLSRISKDRKWLLESLQKHGYTNPSDISFCSFTDGEIYIDEKDGHRTKGIITITTDPNSSSVDKLAAALEHHHHHH	soluble
MSLTSDTKEKVEYSTDKYKVETNRFWDNWFISVGAGGQVYFGDHDKQIDFGDRIAPALDIAIGKWFTPGIGIRFMYSGLKSKGATRDDWECDITHGTGEHVPGWAGVPGDDLQYSKYKMSNLHADVLFNVLNLFGGYNENRKWDLSPYAGLGWARVYDSPSSKEVSANLGILTSWHFCDVLALNLDVRGMFVNDRFDGEGGGRFGEGNLSATIGLTYKFKQRSWDRSKTVYRYNYGDLESMRRKLNDMSAENDRLKKALADGDKQKAQTIVKKIASANLVTFKINRTKLSNEARANLGLLAEIIKSGDPETVYTITGYADAGTGSSKGNERLSKERAENVYDCLVKEFGVSEKQLRIDYKGGVDNMFYNDPRLSRAVITRGEEGHHHHHH	not soluble
MKEFYLTVEQIGDSIFERYIDSNGRERTREVEYKPSLFAHCPESQATKYFDIYGKPCTRKLFANMRDASQWIKRMEDIGLEALGMDDFKLAYLSDTYNYEIKYDHTKIRVANFDIEVTSPDGFPEPSQAKHPIDAITHYDSIDDRFYVFDLLNSPYGNVEEWSIEIAAKLQEQGGDEVPSEIIDKIIYMPFDNEKELLMEYLNFWQQKTPVILTGWNVESFDIPYVYNRIKNIFGESTAKRLSPHRKTRVKVIENMYGSREIITLFGISVLDYIDLYKKFSFTNQPSYSLDYISEFELNVGKLKYDGPISKLRESNHQRYISYNIIDVYRVLQIDAKRQFINLSLDMGYYAKIQIQSVFSPIKTWDAIIFNSLKEQNKVIPQGRSHPVQPYPGAFVKEPIPNRYKYVMSFDLTSLYPSIIRQVNISPETIAGTFKVAPLHDYINAVAERPSDVYSCSPNGMMYYKDRDGVVPTEITKVFNQRKEHKGYMLAAQRNGEIIKEALHNPNLSVDEPLDVDYRFDFSDEIKEKIKKLSAKSLNEMLFRAQRTEVAGMTAQINRKALINGLAGALGNVWFRYYDLRNATAITTFGQMALQWIERKVNEYLNEVCGTEGEAFVLYGDTDSIYVSADKIIDKVGESKFRDTNHWVDFLDKFARERMEPAIDRGFREMCEYMNNKQHLMFMDREAIAGPPLGSKGIGGFWTGKKRYALNVWDMEGTRYAEPKLKIMGLETQKSSTPKAVQKALKECIRRMLQEGEESLQEYFKEFEKEFRQLNYISIASVSSANNIAKYDVGGFPGPKCPFHIRGILTYNRAIKGNIDAPQVVEGEKVYVLPLREGNPFGDKCIAWPSGTEITDLIKDDVLHWMDYTVLLEKTFIKPLEGFTSAAKLDYEKKASLFDMFDFHHHHHH	soluble
GVSIRSMKNFYDWIKEFVRDQGEFIAQQSGWLELERSSYAKLIAQTISHVLNGGSLLVSADSSRHWFLNYILSNLNPKDLKERPLLSVIDFNASSFYPKNDANLSLATIEMTYQNPMFWHVGKIENEGLKTILLSKIPSFLWLFEELKEDCLLLKEHDSLLDYKLLQLFKLFENALFSVLYNKVTL	soluble
MTQVPPSASPADLLAVLERIATALERQGAPAVPANSLDGADAFVWHAAESWLEPVCRVNRVDIALLQGIERQRQTLYDNTLRFAHGLPANNALLWGARGTGKSSLVKAVHASVNQALTAKGAAPVALVEIHREDIPTLPRLLRILAASGRPCLLFCDDLSFDGNDSSYKSLKAVLEGGIEGRPDTVIFYATSNRRHLLAREMVENEQSTALHAGEAVEEKVSLSDRFGLWLGFHNVDQPTYFDIVDGYARAYGLDIETEDLHREAREWSMARGSRSGRTAWQFIQDLAGRLGKTLELEHHHHHH	soluble
MKIGVFDSGVGGFSVLKSLLKARLFDEIIYYGDSARVPYGTKDPTTIKQFGLEALDFFKPHEIELLIVACNTASALALEEMQKYSKIPIVGVIEPSILAIKRQVEDKNAPILVLGTKATIQSNAYDNALKQQGYLNISHLATSLFVPLIEESILEGELLETCMHYYFTPLEILPEVIILGCTHFPLIAQKIEGYFMGHFALPTPPLLIHSGDAIVEYLQQKYALKNNACTFPKVEFHASGDVIWLERQAKEWLKL	soluble
MARYTKEDIFRLAKEENVKYIRLQFTDLLGVIKNVEIPVSQLTKALDNKMMFDGSSIEGFVRIEESDMYLYPDLDTWVIFPWTAEKGKVARLICDIYNADGTPFEGDPRNNLKRVLKEMEALGFSDFNLGPEPEFFLFKVDEKGNPTLELNDNGGYFDLAPMDLGENCRRDIVLELEEMGFEIEASHHEVAPGQHEIDFKYANAIRSCDDIQTFKLVVKTIARKHGLHATFMPKPLYGVNGSGMHCNLSLFKNGENVFFDQNGDLQLSDDARHFIAGILKHAPAFTAVANPTVNSYKRLVPGYEAPCYVAWSAQNRSPLVRIPASRGISTRVEVRSVDPAANPYLVMATLLAAGLDGIKNKLTPPAAVDRNIYVMTKEEREEAGIVDLPATLAQALVTLQSNEVISNALGDHLLEHFIEAKEIEWDIFRTQVHQWERDQYMSLY	not soluble
LYIHGFASSGESHKAKALKAGLAPYEVMTPTLSYVPSLAFQTLRQLVDESLAQKEELTLIGASLGGYYATQLSWLYNLKAILINPAITPYETL	not soluble
MRLVYGLGRSGLGVLRFLRKRGLPARFYDDRPREEEVREALALGFQPDWNLEEAYEEVVAAPGVPLDHPHLKRLAARGAKVLGEAELAYRLSPTPIVGITGTAGKTSTTLFTAHLLRAHGLRAREGGNVDPPLVSVVDEAEVAVAELSSFQLERVHAFRPRVAVLLNLGVDHLDRHGTVEAYHAAKLNLLKNLTPEDALVYNRLDPKVRRAAEASPARLYPFTPGSTPRETNLRAVLEATRAYLDLLGRPLDPGAVAEALRTLPEAPHRFQAFARKGGVVFIDDSIATRTEAVRAALEAVPAPIAWILGGEDKGADLAPLLPLLGRVRVALALGRDGPRFARALEGRTEVVVIAEKDGRTAMRKAVEEALSRLEQGSVLLAPLAASFDQFRDYKDRAQAFREAVFALGGEPWTPSSS	soluble
MAHHHHHHMCSVLILASTCRRRFSNVHLTPAGTVLNSNSALISRRINRRKMKNCNNNDLLKVLKMETTYNELPAHNLLMSSKNDINKLFDYINKNEELSKLMNSCGTYVYLKYLGVVIFSIKENVQISHLSEFIQYLLNKNVFGSSTFTKIRKSKDSDTYNAPFIICLVLIVRVCLSPFLNNILYCHMQNEIITFIIFKPTKKSVHCFFSFFTILL	soluble
